Measured values as given in IntAct's records for PubMed 14625560.

B1: Cell cycle serine/threonine-protein kinase hsk1 (Schizosaccharomyces pombe (strain ATCC 38366 / 972)), P50582 (parent)
chain: MAEAHITLSPKVTHEQQTDIDSECEITEVDDENVNENKSQEMIQDIPARDREEIENITRTFVELQENYRLIEKIGEGTFSSVYKAEDLHYGRYINDWDIQSEVLKESSFGKEKIPVNEDSRKPKYVAIKKIYATSSPARIYNELEILYLLRGSSVIAPLITALRNEDQVLVVLPYYEHTDFRQYYSTFSYRDMSIYFRCLFQAMQQTQTLGIIHRDIKPSNFLFDVRTKHGVLVDFGLAERYDGRQQSHSCRCTNSNAAELAHDFSIAQETSLGYIKNDTRPSKRANRAGTRGFRAPEVLFKCSSQSPKVDIWSAGVILLSFLTKRFPMFNSKDDVDALMEIACIFGKSEMRQCAALHGCTFETNVSTLTEKRVNFRKLILWASCGSASIYKEKLRHKPSQEERLCLDFLEKCLELDCNKRISAEEALDHDFLYLDNLAYEKKDDDTAFDNSFGETSFEKDEDLTAKHLSHILDFKEQEETDEPTSLSKRKRSIDEILPNDALQDGA
partner: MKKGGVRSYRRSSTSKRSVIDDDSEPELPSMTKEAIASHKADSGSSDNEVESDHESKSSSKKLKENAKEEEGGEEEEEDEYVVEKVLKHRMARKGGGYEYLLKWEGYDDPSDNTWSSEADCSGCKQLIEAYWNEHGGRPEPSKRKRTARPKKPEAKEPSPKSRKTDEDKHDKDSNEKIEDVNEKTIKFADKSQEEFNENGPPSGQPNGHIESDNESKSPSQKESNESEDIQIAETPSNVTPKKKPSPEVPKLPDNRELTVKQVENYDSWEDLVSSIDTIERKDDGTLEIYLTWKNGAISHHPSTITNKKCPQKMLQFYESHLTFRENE

Variants of: B1
Conditions: with swi6_schpo swi6, P40381

| effect of a mutation on the interaction | Variant |
| --- | --- |
| decreasing interaction | S314I |
